Results as given in patent publication US20240123068A1 (KITE PHARMA, published 2024).
Each block holds one molecule with its values, some of them ahead of it.

Assays:
[1] = biological target: FCGR1A (FCGR protein) of the membrane proteome array (human) (UniProt P12314); experiment: validation titration, flow cytometry on transfected HEK-293T cells
[2] = biological target: Protein A (positive assay control transfected into cells) (UniProt P38507); experiment: as above
[3] = biological target: T1, Human CD19, wild-type full-length protein expressed on cells (human, UniProt P15391 20-556); experiment: scFv clone screen on NALM6 cells with and without CD19
T1 construct: also called WT CD19; CD19 wild type protein
T1 sequence: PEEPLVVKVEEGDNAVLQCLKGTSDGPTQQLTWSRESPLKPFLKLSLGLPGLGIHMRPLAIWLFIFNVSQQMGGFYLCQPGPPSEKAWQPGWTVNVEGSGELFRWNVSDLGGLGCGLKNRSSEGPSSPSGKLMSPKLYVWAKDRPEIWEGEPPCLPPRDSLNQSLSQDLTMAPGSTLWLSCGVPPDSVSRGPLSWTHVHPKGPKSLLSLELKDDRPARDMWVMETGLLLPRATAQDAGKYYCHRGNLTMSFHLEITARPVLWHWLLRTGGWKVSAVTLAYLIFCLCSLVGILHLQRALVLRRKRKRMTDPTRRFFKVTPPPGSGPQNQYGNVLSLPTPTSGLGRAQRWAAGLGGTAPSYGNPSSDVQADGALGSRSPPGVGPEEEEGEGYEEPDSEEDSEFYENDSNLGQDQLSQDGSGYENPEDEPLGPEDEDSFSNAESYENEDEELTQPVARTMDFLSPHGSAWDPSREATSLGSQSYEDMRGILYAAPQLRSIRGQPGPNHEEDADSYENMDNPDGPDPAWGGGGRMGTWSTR
From the text: To ensure that the up to (30) clones could recognize native CD19 expressed on tumor cells, the clones (scFv) were also screened against NALM6 tumor cell line positive (+) CD19 expression (NALM6 cell line⁺ CD19). CD19 knockout Nalm6 cell line (NALM6 cell line⁻ CD1; or CD19KO Nalm6 cell line) were used as a negative control for the selection. CD19KO Nalm6 cell lines used for the screen were engineered CRISPR knocked-out (KO) Nalm6-CD19KO cells. Clones that bound CD19⁺ NALM6 tumor cells, but not CD19-NALM6 tumor cells (CD19KO) were selected (Step 4).

[4] = biological target: T1, Human CD19, wild-type full-length …; experiment: cell-based or functional assay
[5] = biological target: T2, FITC-Labeled human CD19 protein (ACROBiosystem, Cat-CD9-HF251) (human, UniProt P15391 20-291, FITC label); experiment: flow cytometry, ND539 CAR T cells day 9, CD19-FITC protein only (untransduced 0.85)
T2 construct: The text calls the same reagent CD19-FITC and CD19-GFP; also called CD19-FITC protein; CD19-FTC protein
T2 sequence (looked up): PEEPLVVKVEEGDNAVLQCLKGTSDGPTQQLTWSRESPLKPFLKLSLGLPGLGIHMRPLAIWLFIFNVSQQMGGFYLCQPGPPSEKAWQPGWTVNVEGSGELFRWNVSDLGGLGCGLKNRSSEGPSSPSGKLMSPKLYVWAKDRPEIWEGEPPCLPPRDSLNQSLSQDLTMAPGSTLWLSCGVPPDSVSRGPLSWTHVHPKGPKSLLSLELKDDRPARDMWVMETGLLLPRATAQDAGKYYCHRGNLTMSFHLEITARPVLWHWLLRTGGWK
Method: At day 9 (D9) post-transduction, frozen ND539 CAR T cells were incubated with a fluorescently labeled recombinant CD19 protein. The CD19 CAR T cells were then analyzed by flow cytometry to determine the binding of the recombinant molecules to the CD19 CAR T cells. ND539 CAR T cells expressing a CAR comprising a FMC63 binder were used as control. Flow was gated for CD19 binder CAR.

[6] = biological target: T2, FITC-Labeled human CD19 protein …; experiment: flow cytometry, CD19-FITC protein added after anti-FMC63 Ab PE; FITC gate; competitor anti-FMC63 Ab (untransduced 0.86)
Method: To determine whether the anti-FMC63 antibody and the CD19 binders could bind the same region on the CD19 protein, competitive assays were performed. In the first set of experiments, the CD19 CAR T cells were first incubated with 1 ul of anti-FMC63 antibody PE for 20 minutes. After the incubation period, 2 ul of the CD19-FITC protein was added to the CAR T cells, which were further incubated for another 20 minutes. The CAR T cells were washed and assessed by Flow cytometry. The CAR T cells were gated for anti-FMC63 antibody (idiotype antibody binding) and the CD19 CAR binders (CD19-GFP detection).

[7] = biological target: T2, FITC-Labeled human CD19 protein …; experiment: flow cytometry, premixed CD19-FITC protein and anti-CD19 PE (FMC63 clone) 1:1; FITC gate; competitor anti-CD19 PE (untransduced 0.21)
Method: (§1) In the second set of assays, CAR T cells were co-incubated with the CD19-FTC protein and the anti-CD19 PE (FMC63 clones) at 1:1 or 1:3 ratio for 15 minutes. The CAR T cells were then stained and incubated for 20 minutes before imaging by flow cytometry. […] The CAR T cells were gated for anti-CD19 PE (anti-FMC63 antibody; idiotype antibody binding) and the CD19 binder CAR binder FITC (CD19-GFP detection).

[8] = biological target: T2, FITC-Labeled human CD19 protein …; experiment: flow cytometry, premixed CD19-FITC protein and anti-CD19 PE (FMC63 clone) 1:3; FITC gate; competitor anti-CD19 PE (untransduced 0.21)
Method: as §1

Chain of FCGR1A (FCGR protein) of the membrane proteome array (human) (P12314 16-374): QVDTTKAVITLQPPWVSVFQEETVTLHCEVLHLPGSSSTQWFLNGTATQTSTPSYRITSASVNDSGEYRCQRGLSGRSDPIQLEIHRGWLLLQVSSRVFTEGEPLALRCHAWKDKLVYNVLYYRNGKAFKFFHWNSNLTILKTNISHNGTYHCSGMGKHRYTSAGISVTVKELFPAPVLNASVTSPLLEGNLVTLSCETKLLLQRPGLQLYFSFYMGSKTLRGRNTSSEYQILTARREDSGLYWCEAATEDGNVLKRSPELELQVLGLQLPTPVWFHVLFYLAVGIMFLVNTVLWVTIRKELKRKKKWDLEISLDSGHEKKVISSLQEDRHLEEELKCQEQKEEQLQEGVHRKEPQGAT

MFI signal, fold above negative control [1]: > 45 fold
MFI signal, fold above negative control [2]: > 190 fold
Molecule: isotype control article (Example 13)

binding result [3]: binds
B1: CD19 16 scFv (P10) (scFv)
scFv: QSVLTQPPSVSGAPGQRVTISCTGSSSNIGAGYDVHWYQQLPGTAPKLLIYGNNNRPSGVPDRFSGSKSGTSASLAITGLQAEDEADYYCQSYDVSLGVWVFGGGTKLTVLGGGGSGGGGSGGGGSQLQLQESGPGLVKPSETLSLTCTVSGGSISSPSYYWGWIRQPPGKGLEWIGSIYYTGATYYNPSLKSRVTISVDTSKNQFSLKLSSVTAADTAVYYCARYGPAGVGFDYWGQGTLVTVSS
notes: also called 51; clone 51

binding result [3]: binds
B2: CD19 18 scFv (P11) (scFv)
scFv: QSVLTQPPSVSGAPGQRVTISCTGSSSNIGAGYDVHWYQQLPGTAPKLLIYGTKNRPSGVPDRFSGSKSGTSASLAITGLQAEDEADYYCQSYDVRLKGWVFGGGTKLTVLGGGGSGGGGSGGGGSQLQLQESGPGLVKPSETLSLTCTVSGGSITSSSYYWGWIRQPPGKGLEWIGSIYYTGTTYYNPSLKSRVTISVDTSKNQFSLKLSSVTAADTAVYYCARYVGLSGGFDYWGQGTLVTVSS
notes: also called 52; clone 52

binding result [3]: binds
B3: CD19 10 scFv (P6) (scFv)
scFv: DIQMTQSPSSLSASVGDRVTITCRASQTISRYLNWYQQKPGKAPKLLIYAASSLQSGVPSRFSGSGSGTDFTLTISSLQPEDFATYYCQQSYRPPLTFGQGTKVEIKGGGGSGGGGSGGGGSEVQLLESGGGLVQPGGSLRLSCAASGFTFSSYAMSWVRQAPGKGLEWVSTISAGGHGTYYADSVKGRFTISRDNSKNTLYLQMNSLRAEDTAVYYCARGAGYFDYWGQGTLVTVSS
notes: also called 47; clone 47

binding result [3]: binds
B4: CD19 23 scFv (P12) (scFv)
scFv: DIQMTQSPSSLSASVGDRVTITCRASQSIYSYLNWYQQKRGKAPKLLIYDASSLQSGVPSRFSGSGSGTDFTLTISSLQPEDFATYYCQQSYTAPPTFGQGTKVEIKGGGGSGGGGSGGGGSEVQLLESGGGLVQPGGSLRLSCAASGFTFSNYAMSWVRQAPGKGLEWVSAISESGHGTYYADSVKGRFTISRDNSKNTLYLQMNSLRAEDTAVYYCARLDWAGFDVWGQGTLVTVSS
notes: also called 53; clone 53

binding result [3]: binds
B5: CD19 11 scFv (P7) (scFv)
scFv: DIQMTQSPSSLSASVGDRVTITCRASQSISSYLNWYQQKPGKAPKLLIYAASSLQSGVPSRFSGSGSGTDFTLTISSLQPEDFATYYCQQTGAVPYTFGQGTKVEIKGGGGSGGGGSGGGGSEVQLLESGGGLVQPGGSLRLSCAASGFTFRDYAMSWVRQAPGKGLEWVSAISESGIDTYYADSVKGRFTISRDNSKNTLYLQMNSLRAEDTAVYYCARVAGYDSDSSTYYDYMDVWGQGTLVTVSS
notes: also called 48; clone 48

binding result [3]: binds
B6: CD19 14 scFv (P8) (scFv)
scFv: DIQMTQSPSSLSASVGDRVTITCRASQSISNYLNWYQQKPGKAPKLLIYAASSLQSGVPSRFSGSGSGTDFTLTISSLQPEDFATYYCQQAYSAPITFGQGTKVEIKGGGGSGGGGSGGGGSEVQLLESGGGLVQPGGSLRLSCAASGFTFGDYAMSWVRQAPGKGLEWVSAISRGGHGTYYADSVKGRFTISRDNSKNTLYLQMNSLRAEDTAVYYCARLVGYGLDYWGQGTLVTVSS
notes: also called 49; clone 49

IL-2 & TNF-α, intracellular cytokine staining, Nalm6 stimulation, ND608 CAR T cells day 9 [4]: 28.1%
IL-2, intracellular cytokine staining, Nalm6 stimulation, ND608 CAR T cells day 9 [4]: 1.16%
TNF-α, intracellular cytokine staining, Nalm6 stimulation, ND608 CAR T cells day 9 [4]: 25.2%
Gated for CD19-CAR expression [5]: 23.1 mfi
Gated for CD19 CAR Expression [6]: 17.7 mfi
Gated for CD19-CAR-FITC expression [7]: 9.64 mfi
Gated for CD19-CAR-FITC expression [8]: 4.76 mfi
B7: CD19 CAR comprising CD19 binder 45 (anti-CD19 scFv-BBz CAR) on T cells (other)
chain: DIQMTQSPSSLSASVGDRVTITCRASQDITRYLNWYQQKPGKAPKLLIYAASSLQSGVPSRFSGSGSGTDFTLTISSLQPEDFATYYCQQSYSYPPTFGQGTKVEIKGGGGSGGGGSGGGGSQVQLVESGGGVVQPGRSLRLSCAASGFTFRDYGMHWVRQAPGKGLEWVAVISYEGSNEYYADSVKGRFTISRDNSKNTLYLQMNSLRAEDTAVYYCARDRGFAGWYDYAFDPWGQGTLVTVSSTTTPAPRPPTPAPTIASQPLSLRPEACRPAAGGAVHTRGLDFACDIYIWAPLAGTCGVLLLSLVITLYCKRGRKKLLYIFKQPFMRPVQTTQEEDGCSCRFPEEEEGGCELRVKFSRSADAPAYKQGQNQLYNELNLGRREEYDVLDKRRGRDPEMGGKPRRKNPQEGLYNELQKDKMAEAYSEIGMKGERRRGKGHDGLYQGLSTATKDTYDALHMQALPPR
notes: also called CD19-45 CAR; 45 original

binding result [3]: binds
B8: CD19 15 scFv (P9) (scFv)
scFv: DIQMTQSPSSLSASVGDRVTITCRASQPIRPYLNWYQQKPGKAPKLLIYDASSLQSGVPSRFSGSGSGTDFTLTISSLQPEDFATYYCQQSYSAPYTFGQGTKVEIKGGGGSGGGGSGGGGSEVQLLESGGGLVQPGGSLRLSCAASGFTFSSYAMSWVRQAPGKGLEWVSVISGGGANTYYADSVKGRFTISRDNSKNTLYLQMNSLRAEDTAVYYCARDWRYFDHWGQGTLVTVSS
notes: also called 50; clone 50

IL-2 & TNF-α, intracellular cytokine staining, Nalm6 stimulation, ND608 CAR T cells day 9 [4]: 37%
IL-2, intracellular cytokine staining, Nalm6 stimulation, ND608 CAR T cells day 9 [4]: 1.06%
TNF-α, intracellular cytokine staining, Nalm6 stimulation, ND608 CAR T cells day 9 [4]: 36.1%
Gated for CD19-CAR expression [5]: 30.4 mfi
Gated for CD19 CAR Expression [6]: 20.1 mfi
Gated for CD19-CAR-FITC expression [7]: 14.5 mfi
Gated for CD19-CAR-FITC expression [8]: 5.56 mfi
B9: CD19 CAR comprising CD19 binder 52 (anti-CD19 scFv-BBz CAR) on T cells (other)
chain: QSVLTQPPSVSGAPGQRVTISCTGSSSNIGAGYDVHWYQQLPGTAPKLLIYGTKNRPSGVPDRFSGSKSGTSASLAITGLQAEDEADYYCQSYDVRLKGWVFGGGTKLTVLGGGGSGGGGSGGGGSQLQLQESGPGLVKPSETLSLTCTVSGGSITSSSYYWGWIRQPPGKGLEWIGSIYYTGTTYYNPSLKSRVTISVDTSKNQFSLKLSSVTAADTAVYYCARYVGLSGGFDYWGQGTLVTVSSTTTPAPRPPTPAPTIASQPLSLRPEACRPAAGGAVHTRGLDFACDIYIWAPLAGTCGVLLLSLVITLYCKRGRKKLLYIFKQPFMRPVQTTQEEDGCSCRFPEEEEGGCELRVKFSRSADAPAYKQGQNQLYNELNLGRREEYDVLDKRRGRDPEMGGKPRRKNPQEGLYNELQKDKMAEAYSEIGMKGERRRGKGHDGLYQGLSTATKDTYDALHMQALPPR
notes: also called CD19-52 CAR

binding result [3]: binds
B10: CD19 7 scFv (P5) (scFv)
scFv: DIQMTQSPSSLSASVGDRVTITCRASQSISKYLNWYQQKPGKAPKLLIYDASSLQSGVPSRFSGSGSGTDFTLTISSLQPEDFATYYCQQSYTIPLTFGQGTKVEIKGGGGSGGGGSGGGGSQVQLVQSGAEVKKPGSSVKVSCKASGGTFSSYAFSWVRQAPGQGLEWMGGIVPLFGAVEYAQKFQGRVTITADESTSTAYMELSSLRSEDTAVYYCAREKGFYRYFDHWGQGTLVTVSS
notes: also called 46; clone 46
